Laboratory results from patent publication US20200297818A1 (ZEALAND PHARMA A S, published 2020).
*1 amine or outer side, *2 acyl side, *3 side chain or, on linkers, in order; H or OH if unused. Side-chain parts run from the residue outwards. [ ]: non-standard residue; d: D form. The star is where a group is joined. C20 diacid = O=C(O)CCCCCCCCCCCCCCCCCCC(=O)*; C18 diacid = O=C(O)CCCCCCCCCCCCCCCCC(=O)*; γGlu = O=C(O)[C@H](CCC(=O)[*:2])N[*:1]; εLys = N[C@@H](CCCCN[*:1])C(=O)[*:2]; Stearoyl = CCCCCCCCCCCCCCCCCC(=O)*; AEEA = NCCOCCOCC(=O)O; Aib = CC(C)(N)C(=O)O

T1: human GLP-2 receptor (hGLP2-R) (human, UniProt O95838 1-553)
T1 sequence (looked up): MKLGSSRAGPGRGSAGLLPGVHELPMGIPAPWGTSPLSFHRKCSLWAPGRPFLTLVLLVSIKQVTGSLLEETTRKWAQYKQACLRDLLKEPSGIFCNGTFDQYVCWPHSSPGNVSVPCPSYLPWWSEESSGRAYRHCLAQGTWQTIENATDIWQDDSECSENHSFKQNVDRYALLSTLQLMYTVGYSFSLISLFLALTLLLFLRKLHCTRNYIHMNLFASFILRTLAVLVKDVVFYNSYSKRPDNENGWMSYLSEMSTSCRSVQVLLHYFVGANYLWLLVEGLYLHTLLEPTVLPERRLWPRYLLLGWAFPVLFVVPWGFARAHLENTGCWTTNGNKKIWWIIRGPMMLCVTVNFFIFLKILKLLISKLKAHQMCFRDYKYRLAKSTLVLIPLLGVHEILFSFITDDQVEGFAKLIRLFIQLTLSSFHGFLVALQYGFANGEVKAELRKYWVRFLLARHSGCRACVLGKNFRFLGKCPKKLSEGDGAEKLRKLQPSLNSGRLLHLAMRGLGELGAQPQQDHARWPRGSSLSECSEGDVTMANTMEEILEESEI


Key:
[1] = target: human glucagon-like peptide 1 receptor (GLP-1 R) (human, UniProt P43220 24-463); assay: cell-based or functional assay
[2] = target: T1, human GLP-2 receptor (hGLP2-R); assay: cell-based or functional assay

EC50 GLP-1 (nM); cAMP response [1] [nM]	EC50 GLP-2 (nM); cAMP response [2] [nM]	Binder
0.25	0.89	H-H[Aib]EGTFSSELATILDEQAARDFIAWLIAHKITD[dK][dK][dK][dK][dK][dK]([γGlu-C18 diacid])-NH2 [Compound 38]
0.28	0.13	H-H[Aib]EGSFTSELATILDK([AEEA-AEEA-γGlu-C20 diacid])QAARDFIAWLKQHKITD-OH (SMILES CC[C@H](C)[C@H](NC(=O)[C@H](Cc1ccccc1)NC(=O)[C@H](CC(=O)O)NC(=O)[C@H](CCCNC(=N)N)NC(=O)[C@H](C)NC(=O)[C@H](C)NC(=O)[C@H](CCC(N)=O)NC(=O)[C@H](CCCCNC(=O)COCCOCCNC(=O)COCCOCCNC(=O)CC[C@H](NC(=O)CCCCCCCCCCCCCCCCCCC(=O)O)C(=O)O)NC(=O)[C@H](CC(=O)O)NC(=O)[C@H](CC(C)C)NC(=O)[C@@H](NC(=O)[C@@H](NC(=O)[C@H](C)NC(=O)[C@H](CC(C)C)NC(=O)[C@H](CCC(=O)O)NC(=O)[C@H](CO)NC(=O)[C@@H](NC(=O)[C@H](Cc1ccccc1)NC(=O)[C@H](CO)NC(=O)CNC(=O)[C@H](CCC(=O)O)NC(=O)C(C)(C)NC(=O)[C@@H](N)Cc1c[nH]cn1)[C@@H](C)O)[C@@H](C)O)[C@@H](C)CC)C(=O)N[C@@H](C)C(=O)N[C@@H](Cc1c[nH]c2ccccc12)C(=O)N[C@@H](CC(C)C)C(=O)N[C@@H](CCCCN)C(=O)N[C@@H](CCC(N)=O)C(=O)N[C@@H](Cc1c[nH]cn1)C(=O)N[C@@H](CCCCN)C(=O)N[C@H](C(=O)N[C@H](C(=O)N[C@@H](CC(=O)O)C(=O)O)[C@@H](C)O)[C@@H](C)CC) [Compound 34]
0.32	3.2	H-H[Aib]EGSFTSELATILDK(Stearoyl)QAARDFIAWLIQYKITD-OH (SMILES CCCCCCCCCCCCCCCCCC(=O)NCCCC[C@H](NC(=O)[C@H](CC(=O)O)NC(=O)[C@H](CC(C)C)NC(=O)[C@@H](NC(=O)[C@@H](NC(=O)[C@H](C)NC(=O)[C@H](CC(C)C)NC(=O)[C@H](CCC(=O)O)NC(=O)[C@H](CO)NC(=O)[C@@H](NC(=O)[C@H](Cc1ccccc1)NC(=O)[C@H](CO)NC(=O)CNC(=O)[C@H](CCC(=O)O)NC(=O)C(C)(C)NC(=O)[C@@H](N)Cc1c[nH]cn1)[C@@H](C)O)[C@@H](C)O)[C@@H](C)CC)C(=O)N[C@@H](CCC(N)=O)C(=O)N[C@@H](C)C(=O)N[C@@H](C)C(=O)N[C@@H](CCCNC(=N)N)C(=O)N[C@@H](CC(=O)O)C(=O)N[C@@H](Cc1ccccc1)C(=O)N[C@H](C(=O)N[C@@H](C)C(=O)N[C@@H](Cc1c[nH]c2ccccc12)C(=O)N[C@@H](CC(C)C)C(=O)N[C@H](C(=O)N[C@@H](CCC(N)=O)C(=O)N[C@@H](Cc1ccc(O)cc1)C(=O)N[C@@H](CCCCN)C(=O)N[C@H](C(=O)N[C@H](C(=O)N[C@@H](CC(=O)O)C(=O)O)[C@@H](C)O)[C@@H](C)CC)[C@@H](C)CC)[C@@H](C)CC) [Compound 36]
3.9	0.28	HXEGSFSSELATILDXQAARDFIAWLIQHKITD (HELM PEPTIDE1{H.[Aib].E.G.S.F.S.S.E.L.A.T.I.L.D.K.Q.A.A.R.D.F.I.A.W.L.I.Q.H.K.I.T.D}|PEPTIDE2{[O=C(O)CCCCCCCCCCCCCCCCC(=O)[*:2]].[gGlu]}$PEPTIDE1,PEPTIDE2,16:R3-2:R2$$$V2.0; SMILES CC[C@H](C)[C@H](NC(=O)[C@H](Cc1ccccc1)NC(=O)[C@H](CC(=O)O)NC(=O)[C@H](CCCNC(=N)N)NC(=O)[C@H](C)NC(=O)[C@H](C)NC(=O)[C@H](CCC(N)=O)NC(=O)[C@H](CCCCNC(=O)CC[C@H](NC(=O)CCCCCCCCCCCCCCCCC(=O)O)C(=O)O)NC(=O)[C@H](CC(=O)O)NC(=O)[C@H](CC(C)C)NC(=O)[C@@H](NC(=O)[C@@H](NC(=O)[C@H](C)NC(=O)[C@H](CC(C)C)NC(=O)[C@H](CCC(=O)O)NC(=O)[C@H](CO)NC(=O)[C@H](CO)NC(=O)[C@H](Cc1ccccc1)NC(=O)[C@H](CO)NC(=O)CNC(=O)[C@H](CCC(=O)O)NC(=O)C(C)(C)NC(=O)[C@@H](N)Cc1c[nH]cn1)[C@@H](C)O)[C@@H](C)CC)C(=O)N[C@@H](C)C(=O)N[C@@H](Cc1c[nH]c2ccccc12)C(=O)N[C@@H](CC(C)C)C(=O)N[C@H](C(=O)N[C@@H](CCC(N)=O)C(=O)N[C@@H](Cc1c[nH]cn1)C(=O)N[C@@H](CCCCN)C(=O)N[C@H](C(=O)N[C@H](C(=O)N[C@@H](CC(=O)O)C(=O)O)[C@@H](C)O)[C@@H](C)CC)[C@@H](C)CC) [reference compound B]
0.85	0.072	HXEGSFTSELATILDXQAARDFIAWLYQHKITD (HELM PEPTIDE1{H.[Aib].E.G.S.F.T.S.E.L.A.T.I.L.D.K.Q.A.A.R.D.F.I.A.W.L.Y.Q.H.K.I.T.D}|PEPTIDE2{[O=C(O)CCCCCCCCCCCCCCCCC(=O)[*:2]].[gGlu].[O=C(COCCOCCN[*:1])[*:2]]}$PEPTIDE1,PEPTIDE2,16:R3-3:R2$$$V2.0; SMILES CC[C@H](C)[C@H](NC(=O)[C@H](Cc1ccccc1)NC(=O)[C@H](CC(=O)O)NC(=O)[C@H](CCCNC(=N)N)NC(=O)[C@H](C)NC(=O)[C@H](C)NC(=O)[C@H](CCC(N)=O)NC(=O)[C@H](CCCCNC(=O)COCCOCCNC(=O)CC[C@H](NC(=O)CCCCCCCCCCCCCCCCC(=O)O)C(=O)O)NC(=O)[C@H](CC(=O)O)NC(=O)[C@H](CC(C)C)NC(=O)[C@@H](NC(=O)[C@@H](NC(=O)[C@H](C)NC(=O)[C@H](CC(C)C)NC(=O)[C@H](CCC(=O)O)NC(=O)[C@H](CO)NC(=O)[C@@H](NC(=O)[C@H](Cc1ccccc1)NC(=O)[C@H](CO)NC(=O)CNC(=O)[C@H](CCC(=O)O)NC(=O)C(C)(C)NC(=O)[C@@H](N)Cc1c[nH]cn1)[C@@H](C)O)[C@@H](C)O)[C@@H](C)CC)C(=O)N[C@@H](C)C(=O)N[C@@H](Cc1c[nH]c2ccccc12)C(=O)N[C@@H](CC(C)C)C(=O)N[C@@H](Cc1ccc(O)cc1)C(=O)N[C@@H](CCC(N)=O)C(=O)N[C@@H](Cc1c[nH]cn1)C(=O)N[C@@H](CCCCN)C(=O)N[C@H](C(=O)N[C@H](C(=O)N[C@@H](CC(=O)O)C(=O)O)[C@@H](C)O)[C@@H](C)CC) [Compound 33]
0.38	0.46	HXEGSFTSELATILDXQAARDFIAWLQQHKITD (HELM PEPTIDE1{H.[Aib].E.G.S.F.T.S.E.L.A.T.I.L.D.K.Q.A.A.R.D.F.I.A.W.L.Q.Q.H.K.I.T.D}|PEPTIDE2{[CCCCCCCCCCCCCCCC(=O)[*:2]].[bAla]}$PEPTIDE1,PEPTIDE2,16:R3-2:R2$$$V2.0; SMILES CCCCCCCCCCCCCCCC(=O)NCCC(=O)NCCCC[C@H](NC(=O)[C@H](CC(=O)O)NC(=O)[C@H](CC(C)C)NC(=O)[C@@H](NC(=O)[C@@H](NC(=O)[C@H](C)NC(=O)[C@H](CC(C)C)NC(=O)[C@H](CCC(=O)O)NC(=O)[C@H](CO)NC(=O)[C@@H](NC(=O)[C@H](Cc1ccccc1)NC(=O)[C@H](CO)NC(=O)CNC(=O)[C@H](CCC(=O)O)NC(=O)C(C)(C)NC(=O)[C@@H](N)Cc1c[nH]cn1)[C@@H](C)O)[C@@H](C)O)[C@@H](C)CC)C(=O)N[C@@H](CCC(N)=O)C(=O)N[C@@H](C)C(=O)N[C@@H](C)C(=O)N[C@@H](CCCNC(=N)N)C(=O)N[C@@H](CC(=O)O)C(=O)N[C@@H](Cc1ccccc1)C(=O)N[C@H](C(=O)N[C@@H](C)C(=O)N[C@@H](Cc1c[nH]c2ccccc12)C(=O)N[C@@H](CC(C)C)C(=O)N[C@@H](CCC(N)=O)C(=O)N[C@@H](CCC(N)=O)C(=O)N[C@@H](Cc1c[nH]cn1)C(=O)N[C@@H](CCCCN)C(=O)N[C@H](C(=O)N[C@H](C(=O)N[C@@H](CC(=O)O)C(=O)O)[C@@H](C)O)[C@@H](C)CC)[C@@H](C)CC) [Compound 32]
0.099	0.3	H-H[Aib]EGSFTSELATILDK([AEEA-AEEA-AEEA-εLys-C20 diacid])QAARDFIAWLIQQKITD-OH (SMILES CC[C@H](C)[C@H](NC(=O)[C@H](Cc1ccccc1)NC(=O)[C@H](CC(=O)O)NC(=O)[C@H](CCCNC(=N)N)NC(=O)[C@H](C)NC(=O)[C@H](C)NC(=O)[C@H](CCC(N)=O)NC(=O)[C@H](CCCCNC(=O)COCCOCCNC(=O)COCCOCCNC(=O)COCCOCCNC(=O)[C@@H](N)CCCCNC(=O)CCCCCCCCCCCCCCCCCCC(=O)O)NC(=O)[C@H](CC(=O)O)NC(=O)[C@H](CC(C)C)NC(=O)[C@@H](NC(=O)[C@@H](NC(=O)[C@H](C)NC(=O)[C@H](CC(C)C)NC(=O)[C@H](CCC(=O)O)NC(=O)[C@H](CO)NC(=O)[C@@H](NC(=O)[C@H](Cc1ccccc1)NC(=O)[C@H](CO)NC(=O)CNC(=O)[C@H](CCC(=O)O)NC(=O)C(C)(C)NC(=O)[C@@H](N)Cc1c[nH]cn1)[C@@H](C)O)[C@@H](C)O)[C@@H](C)CC)C(=O)N[C@@H](C)C(=O)N[C@@H](Cc1c[nH]c2ccccc12)C(=O)N[C@@H](CC(C)C)C(=O)N[C@H](C(=O)N[C@@H](CCC(N)=O)C(=O)N[C@@H](CCC(N)=O)C(=O)N[C@@H](CCCCN)C(=O)N[C@H](C(=O)N[C@H](C(=O)N[C@@H](CC(=O)O)C(=O)O)[C@@H](C)O)[C@@H](C)CC)[C@@H](C)CC) [Compound 35]
